This note sets out measurements from patent US20110033476A1 (published 2011).

Assay [1] has as its target M2 protein of influenza A/Puerto Rico/8/34 (H1N1) (Influenza A virus A/Puerto Rico/8/34 (H1N1)) (UniProt P06821). As to the kind of experiment: ELISA on purified A/Puerto Rico/8/34 virus coated on wells (FIG. 14a). (ELISA stands for enzyme-linked immunosorbent assay.)
The target is the same in assay [2]. As to the kind of experiment: surface plasmon resonance, Fab binding to virus. Background: SPR reads the build-up and loss of mass on a sensor chip optically.
For assay [3], the target named is T1, M2 protein of influenza A/Puerto Rico/8/34 (H1N1) (Influenza A virus A/Puerto Rico/8/34 …, UniProt P06821 1-97).
T1 construct: whole, on cells
The assay can be described thus: ELISA on influenza virus, crude supernatant (FIG. 9).

Chain of M2 protein of influenza A/Puerto Rico/8/34 (H1N1) (Influenza A virus A/Puerto Rico/8/34 (H1N1)) (P06821 whole entry): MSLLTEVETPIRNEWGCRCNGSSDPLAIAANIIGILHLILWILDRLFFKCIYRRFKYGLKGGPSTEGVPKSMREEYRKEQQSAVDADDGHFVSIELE
T1 sequence (P06821 whole entry): as above

By EC50 is commonly meant the concentration that produces a half-maximal response. Higher therefore signals lower potency in that assay. For TCN-031 (antibody), the EC50 in assay [1] was 0.1 µg/mL.
By Kd is commonly meant a measure of binding affinity in units of concentration. The low end stands for higher affinity, the high end for lower affinity. One may read the koff as the rate constant with which the complex falls apart. As usually defined, the kon is the second-order rate constant of association. A high value points to faster complex formation. In assay [2], TCN-031 Fab came in with a dissociation constant Kd of 14 nM, a koff of 0.014 s⁻¹ and a kon of 1e+06 M⁻¹ s⁻¹.
In assay [1], TCN-032 (antibody) had an EC50 of 0.1 µg/mL.
As to TCN-032 Fab, in assay [2], the Kd is 3.2 nM, the koff stood at 0.0023 s⁻¹ and the kon stood at 740000 M⁻¹ s⁻¹.

B1: 23K12 (antibody, V domains shown)
VH: EVQLVESGGGLVQPGGSLRISCAASGFTVSSNYMSWVRQAPGKGLEWVSVIYSGGSTYYADSVKGRFSFSRDNSKNTVFLQMNSLRAEDTAVYYCARCLSRMRGYGLDVWGQGTTVTVS
VL: DIQMTQSPSSLSASVGDRVTITCRTSQSISSYLNWYQQKPGKAPKLLIYAASSLQSGVPSRFSGSGSGTDFTLTISGLQPEDFATYYCQQSYSMPAFGQGTKLEIK
Take B1: the binding result in assay [3] is “binds”.
